# Molecular target: acetylcholine receptor
# Assay: SPR, receptor immobilized on CM5 chip, peptide 10 uM
row,Binder,Binding affinity (RU)
1,RSRYKK [6mer-2-419],154 RU
2,RLITRR [6mer-2-422],154 RU
3,RRQYRK [6mer-2-420],128 RU
4,KVICRK [6mer-2-421],124 RU
5,RVQYKK [6mer-2-418],121 RU

# The remaining lines, values ahead:
row,Binding affinity (RU),Binder
1,131 RU,RLLCRK [6mer-2-438]
2,153 RU,KQLSKK [6mer-2-440]
3,139 RU,KLFSRK [6mer-2-459]
4,122 RU,RQYCRR [6mer-2-443]
5,154 RU,RWVYKR [6mer-2-435]
6,135 RU,KSFRKK [6mer-2-464]
7,148 RU,KVVRKR [6mer-2-432]
8,154 RU,RGRCRR [6mer-2-449]
9,123 RU,RQRYRK [6mer-2-450]
10,139 RU,RWFRRR [6mer-2-430]
11,135 RU,KLILKR [6mer-2-431]
12,139 RU,RSQCRK [6mer-2-460]
13,153 RU,KWFSKR [6mer-2-439]
14,139 RU,RVYTKK [6mer-2-447]
15,146 RU,KGLYKR [6mer-2-452]
16,142 RU,KVFLKK [6mer-2-428]
17,154 RU,RVIRRK [6mer-2-434]
18,145 RU,KLQTKK [6mer-2-425]
19,148 RU,KVLYKR [6mer-2-436]
20,139 RU,KSQRKR [6mer-2-441]
21,124 RU,KLLTRR [6mer-2-463]
22,139 RU,RLVQKR [6mer-2-442]
23,141 RU,RLVRKK [6mer-2-453]

row,Binding affinity (RU),Binder
1,153 RU,RQLQKK [6mer-2-446]
2,128 RU,RSFRRR [6mer-2-448]
3,147 RU,KSVTKR [6mer-2-456]
4,145 RU,KQICKR [6mer-2-462]
5,146 RU,RRVYKR [6mer-2-457]
6,123 RU,RWRQRK [6mer-2-429]
7,135 RU,RWYSKR [6mer-2-455]
8,148 RU,RGRCKK [6mer-2-451]
9,139 RU,RLYCKK [6mer-2-424]
10,122 RU,KGVSKR [6mer-2-465]
11,122 RU,RRFQRR [6mer-2-458]
12,154 RU,RLQYRK [6mer-2-423]
13,141 RU,RQRLKK [6mer-2-444]
14,121 RU,KQVCKK [6mer-2-437]
15,149 RU,KSVCRR [6mer-2-461]
16,133 RU,RSVQKK [6mer-2-454]
17,147 RU,RLQRRR [6mer-2-427]
18,142 RU,RLLTRR [6mer-2-466]
19,141 RU,KGQRRK [6mer-2-426]
20,142 RU,KQYSRR [6mer-2-467]
21,145 RU,RLVCKR [6mer-2-445]
22,139 RU,RWIQKR [6mer-2-433]

# Molecular target: acetylcholine receptor
# Assay: SPR, AchR on chip, peptide 10 uM
row,Binding affinity (RU),Binder
1,53 RU,RGYCK [5mer-38]
2,61 RU,RWVLK [5mer-328]
3,64 RU,KRFYK [5mer-334]
4,67 RU,KGYLR [5mer-27]
5,75 RU,RQLSR [5mer-32]
6,82 RU,KRIRK [5mer-34]
7,59 RU,RRISK [5mer-33]
8,80 RU,RWQYK [5mer-35]
9,60 RU,RRLQK [5mer-36]
10,61 RU,RWILR [5mer-338]
11,85 RU,RRYCR [5mer-332]
12,86 RU,RWQLR [5mer-330]
13,79 RU,RGIQR [5mer-331]
14,87 RU,KWVRK [5mer-339]
15,56 RU,KSLTR [5mer-335]
16,67 RU,KQVSR [5mer-39]
17,67 RU,KGRSR [5mer-337]
18,65 RU,RQQQR [5mer-26]
19,79 RU,RRFCR [5mer-329]
20,68 RU,RRFTK [5mer-326]
21,83 RU,KSVSR [5mer-336]
22,72 RU,RRLSR [5mer-37]
23,63 RU,KGFCR [5mer-29]
24,70 RU,KSQLR [5mer-30]
25,86 RU,RVLCR [5mer-327]
26,67 RU,RVLQR [5mer-333]
27,74 RU,RLLSR [5mer-28]
28,65 RU,RRLQR [5mer-31]
